This note sets out measurements from publication doi:10.1101/2022.09.26.507980 (bioRxiv, 2022).

This assay deals with T1, NiV-F wild type expressed on 293T cells (Nipah virus, UniProt Q9IH63).
T1 construct: source: HEK293T, transiently transfected, on cells
The assay can be described thus: flow cytometry on cells. As to conditions: one partner purified.

B1: mAb92 (antibody, V domains shown)
VH: QSLEESGGRLVTPGTPLTLTCTASGFSLSSYYMMWVRQAPGKGLEWIGIINTGGNAYYASWTKGRFTISKTSTTVDLKITSPTTEDTATYFCARAVPSGAGYSAGGLWGPGTLVTVSS
VL: DQVLTQTPASVEAAVGGTVTIKCQASQSVGFYLSWYQQKPGQPPKLLIYRASTLESGVPSRFKGSGSGTEFTLTISDLECADAATYYCQTNDYLASSAFGGGTEVVVR
notes: also called monoclonal antibody 92
In the case of B1, the binding result is recorded as “binds”.
